Assay results published in the supplement of paper PMC9112550, “Optimization of the antimicrobial peptide Bac7 by deep mutational scanning” (BMC Biology, 2022).

System: Escherichia coli TOP10
Assay: shrunken log2 fold change of peptide-encoding DNA abundance (4.5 h post-induction vs induction); higher = less antimicrobial activity (less host growth inhibition)
Conditions: time post-induction: 4.5 h; library: site-saturation at positions 5, 18, 19, 20
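Note: peptides expressed intracellularly from a pBAD plasmid library in pooled LB shake-flask culture, induced with 0.3% L-arabinose, DNA abundance read by NGS, three biological replicates, DESeq2 with apeglm shrinkage.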

| Sequence | shrunken log2 fold change |
| --- | --- |
| RRIRFRPPRLPRPRPRPYRWPRP | -0.0143 |
| RRIRFRPPRLPRPRPRPYSEPRP | -0.297 |
| RRIRFRPPRLPRPRPRPYSFPRP | -0.967 |
| RRIRFRPPRLPRPRPRPYSNPRP | -0.603 |
| RRIRFRPPRLPRPRPRPYTFPRP | -1.3 |
| RRIRFRPPRLPRPRPRPYTGPRP | -0.0357 |
| RRIRFRPPRLPRPRPRPYWGPRP | -0.186 |
| RRIRFRPPRLPRPRPRPYYDPRP | -0.072 |
| RRIRGRPPRLPRPRPRPADWPRP | 1.03 |
| RRIRGRPPRLPRPRPRPAFLPRP | 0.367 |
| RRIRGRPPRLPRPRPRPAFQPRP | 0.202 |
| RRIRGRPPRLPRPRPRPAHMPRP | 0.145 |
| RRIRGRPPRLPRPRPRPAIRPRP | 0.768 |
| RRIRGRPPRLPRPRPRPALGPRP | 1.11 |
| RRIRGRPPRLPRPRPRPALMPRP | 0.879 |
| RRIRGRPPRLPRPRPRPAMDPRP | 0.491 |
| RRIRGRPPRLPRPRPRPAMKPRP | 0.311 |
| RRIRGRPPRLPRPRPRPAMLPRP | 0.7 |
| RRIRGRPPRLPRPRPRPAMSPRP | 0.508 |
| RRIRGRPPRLPRPRPRPASCPRP | 1.06 |
| RRIRGRPPRLPRPRPRPASFPRP | 0.345 |
| RRIRGRPPRLPRPRPRPASKPRP | 0.453 |
| RRIRGRPPRLPRPRPRPASYPRP | -0.14 |
| RRIRGRPPRLPRPRPRPAVMPRP | 0.946 |
| RRIRGRPPRLPRPRPRPAWDPRP | 0.76 |

| Sequence | shrunken log2 fold change |
| --- | --- |
| RRIRGRPPRLPRPRPRPAYMPRP | -0.353 |
| RRIRGRPPRLPRPRPRPAYSPRP | -0.0128 |
| RRIRGRPPRLPRPRPRPAYWPRP | -0.0674 |
| RRIRGRPPRLPRPRPRPCAWPRP | 0.167 |
| RRIRGRPPRLPRPRPRPCCGPRP | 0.781 |
| RRIRGRPPRLPRPRPRPCCPPRP | 0.0328 |
| RRIRGRPPRLPRPRPRPCCSPRP | 0.107 |
| RRIRGRPPRLPRPRPRPCDSPRP | 0.0374 |
| RRIRGRPPRLPRPRPRPCDYPRP | 0.132 |
| RRIRGRPPRLPRPRPRPCECPRP | -0.0257 |
| RRIRGRPPRLPRPRPRPCEDPRP | 0.0133 |
| RRIRGRPPRLPRPRPRPCETPRP | 0.496 |
| RRIRGRPPRLPRPRPRPCFAPRP | 0.789 |
| RRIRGRPPRLPRPRPRPCFCPRP | 0.609 |
| RRIRGRPPRLPRPRPRPCFSPRP | 0.0442 |
| RRIRGRPPRLPRPRPRPCGMPRP | 0.0775 |
| RRIRGRPPRLPRPRPRPCHDPRP | 0.458 |
| RRIRGRPPRLPRPRPRPCINPRP | 0.573 |
| RRIRGRPPRLPRPRPRPCIPPRP | -0.165 |
| RRIRGRPPRLPRPRPRPCIQPRP | -0.0256 |
| RRIRGRPPRLPRPRPRPCKCPRP | -0.082 |
| RRIRGRPPRLPRPRPRPCLIPRP | -0.183 |
| RRIRGRPPRLPRPRPRPCMWPRP | 0.29 |
| RRIRGRPPRLPRPRPRPCNIPRP | -0.284 |
| RRIRGRPPRLPRPRPRPCNYPRP | -0.11 |

| Sequence | shrunken log2 fold change |
| --- | --- |
| RRIRGRPPRLPRPRPRPCPIPRP | -0.0298 |
| RRIRGRPPRLPRPRPRPCQYPRP | 0.0685 |
| RRIRGRPPRLPRPRPRPCVNPRP | 0.0252 |
| RRIRGRPPRLPRPRPRPCVVPRP | 0.293 |
| RRIRGRPPRLPRPRPRPCWLPRP | -0.0298 |
| RRIRGRPPRLPRPRPRPCWPPRP | 0.455 |
| RRIRGRPPRLPRPRPRPCYFPRP | -0.0409 |
| RRIRGRPPRLPRPRPRPDCKPRP | 0.577 |
| RRIRGRPPRLPRPRPRPDCLPRP | 0.975 |
| RRIRGRPPRLPRPRPRPDCYPRP | 0.191 |
| RRIRGRPPRLPRPRPRPDDWPRP | 1.5 |
| RRIRGRPPRLPRPRPRPDEMPRP | -0.0376 |
| RRIRGRPPRLPRPRPRPDFAPRP | 0.724 |
| RRIRGRPPRLPRPRPRPDGYPRP | 0.222 |
| RRIRGRPPRLPRPRPRPDIDPRP | 2.17 |
| RRIRGRPPRLPRPRPRPDIKPRP | 0.547 |
| RRIRGRPPRLPRPRPRPDIPPRP | 0.23 |
| RRIRGRPPRLPRPRPRPDIWPRP | 0.598 |
| RRIRGRPPRLPRPRPRPDIYPRP | 1.05 |
| RRIRGRPPRLPRPRPRPDLWPRP | 1.79 |
| RRIRGRPPRLPRPRPRPDMAPRP | 0.882 |
| RRIRGRPPRLPRPRPRPDPDPRP | 0.776 |
| RRIRGRPPRLPRPRPRPDPFPRP | 0.302 |
| RRIRGRPPRLPRPRPRPDPNPRP | 0.522 |
| RRIRGRPPRLPRPRPRPDPVPRP | 0.951 |

| Sequence | shrunken log2 fold change |
| --- | --- |
| RRIRGRPPRLPRPRPRPDQVPRP | 0.656 |
| RRIRGRPPRLPRPRPRPDRYPRP | 0.152 |
| RRIRGRPPRLPRPRPRPDSFPRP | 0.00128 |
| RRIRGRPPRLPRPRPRPDVCPRP | 0.181 |
| RRIRGRPPRLPRPRPRPDYSPRP | -0.0453 |
| RRIRGRPPRLPRPRPRPECWPRP | 1.92 |
| RRIRGRPPRLPRPRPRPEDAPRP | 1.65 |
| RRIRGRPPRLPRPRPRPEDWPRP | 1.45 |
| RRIRGRPPRLPRPRPRPEECPRP | 0.0881 |
| RRIRGRPPRLPRPRPRPEENPRP | 1.21 |
| RRIRGRPPRLPRPRPRPEERPRP | 0.55 |
| RRIRGRPPRLPRPRPRPEFRPRP | 0.634 |
| RRIRGRPPRLPRPRPRPEHHPRP | 0.262 |
| RRIRGRPPRLPRPRPRPEHMPRP | 0.396 |
| RRIRGRPPRLPRPRPRPEIFPRP | 1.02 |
| RRIRGRPPRLPRPRPRPEKDPRP | 1.27 |
| RRIRGRPPRLPRPRPRPEKIPRP | 0.672 |
| RRIRGRPPRLPRPRPRPEKNPRP | 0.921 |
| RRIRGRPPRLPRPRPRPELEPRP | 2.14 |
| RRIRGRPPRLPRPRPRPEMFPRP | 0.0463 |
| RRIRGRPPRLPRPRPRPEMYPRP | 0.837 |
| RRIRGRPPRLPRPRPRPEPTPRP | 1.52 |
| RRIRGRPPRLPRPRPRPERYPRP | -0.107 |
| RRIRGRPPRLPRPRPRPESKPRP | 1.32 |
| RRIRGRPPRLPRPRPRPESLPRP | 0.595 |

| Sequence | shrunken log2 fold change |
| --- | --- |
| RRIRGRPPRLPRPRPRPESPPRP | 1.25 |
| RRIRGRPPRLPRPRPRPETDPRP | 1.34 |
| RRIRGRPPRLPRPRPRPETNPRP | 1.95 |
| RRIRGRPPRLPRPRPRPEVDPRP | 1.84 |
| RRIRGRPPRLPRPRPRPEYCPRP | 0.307 |
| RRIRGRPPRLPRPRPRPEYHPRP | 0.155 |
| RRIRGRPPRLPRPRPRPFADPRP | 2.03 |
| RRIRGRPPRLPRPRPRPFCFPRP | 0.778 |
| RRIRGRPPRLPRPRPRPFCHPRP | 0.418 |
| RRIRGRPPRLPRPRPRPFCLPRP | 0.229 |
| RRIRGRPPRLPRPRPRPFDAPRP | -0.00556 |
| RRIRGRPPRLPRPRPRPFDRPRP | 0.0386 |
| RRIRGRPPRLPRPRPRPFEPPRP | 0.267 |
| RRIRGRPPRLPRPRPRPFFGPRP | 0.188 |
| RRIRGRPPRLPRPRPRPFGCPRP | -0.0567 |
| RRIRGRPPRLPRPRPRPFGEPRP | 0.793 |
| RRIRGRPPRLPRPRPRPFGNPRP | 0.0288 |
| RRIRGRPPRLPRPRPRPFGVPRP | 0.446 |
| RRIRGRPPRLPRPRPRPFIIPRP | 0.102 |
| RRIRGRPPRLPRPRPRPFKQPRP | 0.13 |
| RRIRGRPPRLPRPRPRPFMHPRP | 0.416 |
| RRIRGRPPRLPRPRPRPFMKPRP | -0.248 |
| RRIRGRPPRLPRPRPRPFNWPRP | 0.153 |
| RRIRGRPPRLPRPRPRPFQAPRP | 0.112 |
| RRIRGRPPRLPRPRPRPFQRPRP | -0.0485 |

| Sequence | shrunken log2 fold change |
| --- | --- |
| RRIRGRPPRLPRPRPRPFRHPRP | 0.0102 |
| RRIRGRPPRLPRPRPRPFTDPRP | 0.143 |
| RRIRGRPPRLPRPRPRPFTMPRP | -0.278 |
| RRIRGRPPRLPRPRPRPFTYPRP | 0.0977 |
| RRIRGRPPRLPRPRPRPFVPPRP | 0.0587 |
| RRIRGRPPRLPRPRPRPFWFPRP | 0.283 |
| RRIRGRPPRLPRPRPRPGAEPRP | 1.68 |
| RRIRGRPPRLPRPRPRPGASPRP | 0.934 |
| RRIRGRPPRLPRPRPRPGCCPRP | 1.2 |
| RRIRGRPPRLPRPRPRPGCNPRP | 0.773 |
| RRIRGRPPRLPRPRPRPGCPPRP | 0.806 |
| RRIRGRPPRLPRPRPRPGCVPRP | 1.08 |
| RRIRGRPPRLPRPRPRPGDTPRP | 0.616 |
| RRIRGRPPRLPRPRPRPGERPRP | 0.731 |
| RRIRGRPPRLPRPRPRPGFCPRP | 0.925 |
| RRIRGRPPRLPRPRPRPGFKPRP | 0.354 |
| RRIRGRPPRLPRPRPRPGFNPRP | 0.235 |
| RRIRGRPPRLPRPRPRPGFQPRP | 0.157 |
| RRIRGRPPRLPRPRPRPGFYPRP | 0.512 |
| RRIRGRPPRLPRPRPRPGGFPRP | 0.819 |
| RRIRGRPPRLPRPRPRPGHCPRP | 0.4 |
| RRIRGRPPRLPRPRPRPGHNPRP | 0.0636 |
| RRIRGRPPRLPRPRPRPGIEPRP | 0.118 |
| RRIRGRPPRLPRPRPRPGIQPRP | 0.591 |
| RRIRGRPPRLPRPRPRPGIVPRP | 0.957 |
